The target in one experiment is T1, factor IX (UniProt P00740 47-461).
T1 construct: also called fIX
Briefly: SPR (BIAcore 3000), Ir-CPI immobilized on CM5 chip, factor injected as analyte. The protocol:
(§1) The interaction between Ir-CPI and coagulation or fibrinolytic factors was monitored using a BIAcore 3000 instrument (BIAcore AB, Sweden). Ir-CPI (15 μM) was immobilized on the surface of a CM5 sensor chip in 10 mM acetate buffer, pH 5.0, by the amine coupling procedure according to the manufacturer's instructions. 1500 resonance units (RU) of immobilized Ir-CPI were used for the assay. To subtract the non-specific component from the apparent binding response, a blank flow cell was prepared using the same immobilizing procedure without Ir-CPI. Binding analyses were carried out using HBS buffer (HEPES 10 mM, NaCl 150 mM, EDTA 3 mM; pH 7.4 with 0.005% surfactant P20) as running buffer at 25° C. 100 μl of each analyte (100 nM) was injected on the sensor chip at a flow rate of 70 μl/min Association was monitored during an 84 s injection of analyte. Dissociation was monitored for 3 min after return to the running buffer.
(§2) The ability of Ir-CPI to bind a (co)factor of coagulation or fibrinolysis was evaluated by surface plasmon resonance. […] Moreover, the kinetics of interaction between Ir-CPI and the four target factors (XIIa, XIa, plasmin and kallikrein) were measured after a new immobilization of Ir-CPI. […] Interaction kinetics were determined for each analyte, at 6 different concentrations (from 5 nM to 300 nM). The kinetic data obtained were individually processed with BIA evaluation software in order to determine the kinetics constants.

Another experiment deals with plasminogen (UniProt P00747 20-810). The description is as above. The protocol:
as §1, §2

The target of the next experiment is T2, factor VIIa (UniProt P08709 61-466).
T2 construct: In the amidolytic and reconstituted assays it was used with tissue factor ('FT-FVIIa', 'tissue factor complex/factor VIIa'); In SPR it is printed only as 'fVIIa'; also called fVIIa; FVIIa
T2 sequence (looked up): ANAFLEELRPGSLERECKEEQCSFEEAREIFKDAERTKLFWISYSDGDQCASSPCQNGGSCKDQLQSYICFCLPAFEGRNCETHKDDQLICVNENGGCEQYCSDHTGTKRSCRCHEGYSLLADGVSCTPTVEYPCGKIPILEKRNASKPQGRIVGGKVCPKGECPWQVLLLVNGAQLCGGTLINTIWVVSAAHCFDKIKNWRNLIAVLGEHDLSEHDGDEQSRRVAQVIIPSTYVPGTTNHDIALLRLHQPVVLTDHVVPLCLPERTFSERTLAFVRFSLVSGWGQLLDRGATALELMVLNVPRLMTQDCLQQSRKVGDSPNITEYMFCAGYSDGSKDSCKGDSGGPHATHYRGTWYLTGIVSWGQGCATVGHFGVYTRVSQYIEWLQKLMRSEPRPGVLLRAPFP
The description is as above. The protocol: as §1, §2

In experiment [1] the target is T3, high molecular weight kininogen (UniProt P01042 19-644).
T3 construct: also called HMWK
T3 sequence (looked up): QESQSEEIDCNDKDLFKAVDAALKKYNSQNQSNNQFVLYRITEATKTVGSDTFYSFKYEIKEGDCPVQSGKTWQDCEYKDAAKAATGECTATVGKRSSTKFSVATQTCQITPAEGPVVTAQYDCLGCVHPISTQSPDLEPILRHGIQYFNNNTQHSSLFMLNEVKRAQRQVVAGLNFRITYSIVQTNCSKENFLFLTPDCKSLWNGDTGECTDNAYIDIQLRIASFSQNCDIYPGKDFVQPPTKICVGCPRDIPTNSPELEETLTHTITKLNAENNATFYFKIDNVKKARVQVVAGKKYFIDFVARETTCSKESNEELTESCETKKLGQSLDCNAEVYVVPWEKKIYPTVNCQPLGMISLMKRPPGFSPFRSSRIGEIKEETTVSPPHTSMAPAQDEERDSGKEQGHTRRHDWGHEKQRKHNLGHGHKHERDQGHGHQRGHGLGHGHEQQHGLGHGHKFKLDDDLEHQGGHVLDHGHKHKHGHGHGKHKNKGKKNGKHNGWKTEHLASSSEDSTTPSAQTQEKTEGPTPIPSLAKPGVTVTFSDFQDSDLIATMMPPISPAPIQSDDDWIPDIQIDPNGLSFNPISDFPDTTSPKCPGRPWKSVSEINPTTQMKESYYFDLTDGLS
Described as above. The protocol: as §1, §2

A further experiment has as its target T4, factor X (UniProt P00742 41-488).
T4 construct: also called fX
The experiment is described as above. The protocol:
as §1, §2

A further experiment concerns the target T5, thrombin (UniProt P00734 328-622).
T5 construct: also called factor IIa; IIa
The description is as above. The protocol: as §1, §2

A further experiment concerns the target t-PA (UniProt P00750 36-562). Described as above. The protocol:
as §1, §2

In the next experiment the target is T6, factor XIIa (UniProt P00748 20-615, limits assumed).
T6 sequence (looked up): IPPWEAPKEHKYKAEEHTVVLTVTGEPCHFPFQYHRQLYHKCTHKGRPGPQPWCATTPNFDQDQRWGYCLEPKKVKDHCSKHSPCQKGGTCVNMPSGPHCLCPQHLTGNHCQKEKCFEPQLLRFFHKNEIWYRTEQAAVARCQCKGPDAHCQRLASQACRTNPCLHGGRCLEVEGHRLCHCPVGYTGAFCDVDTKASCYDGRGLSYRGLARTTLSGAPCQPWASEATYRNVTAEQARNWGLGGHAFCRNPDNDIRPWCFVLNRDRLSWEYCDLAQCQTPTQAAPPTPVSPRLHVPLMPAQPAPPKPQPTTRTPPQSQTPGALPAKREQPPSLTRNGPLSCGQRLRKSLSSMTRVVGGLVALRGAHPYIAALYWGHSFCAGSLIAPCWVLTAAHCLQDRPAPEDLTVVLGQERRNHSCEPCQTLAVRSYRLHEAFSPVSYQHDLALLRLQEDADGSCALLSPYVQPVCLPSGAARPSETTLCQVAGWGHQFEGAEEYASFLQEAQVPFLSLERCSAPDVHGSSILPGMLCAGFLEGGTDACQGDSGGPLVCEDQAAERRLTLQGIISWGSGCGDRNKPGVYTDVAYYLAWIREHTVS
Briefly: cell-based or functional assay.

Another experiment addresses factor XIa (UniProt P03951 19-625). Put plainly: cell-based or functional assay.
The target of a further experiment is plasma kallikrein (UniProt P03952 20-638). Briefly: SPR kinetics, Ir-CPI immobilized (about 200 RU), analyte at 6 concentrations from 5 nM to 300 nM. The protocol: Interaction kinetics were determined, for each analyte, with 6 different concentrations (from 5 nM to 300 nM). Binding data were analyzed using BIA evaluation software to determine the kinetic constants.
The ability of Ir-CPI to bind a (co)factor of coagulation or fibrinolysis was evaluated by surface plasmon resonance. […] Moreover, the kinetics of interaction between Ir-CPI and the four target factors (XIIa, XIa, plasmin and kallikrein) were measured after a new immobilization of Ir-CPI. […] Interaction kinetics were determined for each analyte, at 6 different concentrations (from 5 nM to 300 nM). The kinetic data obtained were individually processed with BIA evaluation software in order to determine the kinetics constants. […] FIG. 9 represents sensorgrams for interactions between coagulation factors and immobilized Ir-CPI measured by surface plasmon resonance. Ir-CPI was immobilized onto the surface of a sensor chip CM5 at level of 1500 resonance units (RUs). Contact factors (100 nM final concentration) were injected at a flow rate of 70 μl/min in HBS buffer, and association was monitored. After return to buffer flow, dissociation was monitored during 84 s. The sensor chip surface was regenerated by a pulse injection of 25 mM NaOH after each experiment.

Data on one molecule can be found in US20160046728A1 (HENOGEN S A, published 2016).

As usually defined, the Kd is the constant that tells how readily two partners part at equilibrium.

Chain of t-PA (P00750 36-562 limits assumed): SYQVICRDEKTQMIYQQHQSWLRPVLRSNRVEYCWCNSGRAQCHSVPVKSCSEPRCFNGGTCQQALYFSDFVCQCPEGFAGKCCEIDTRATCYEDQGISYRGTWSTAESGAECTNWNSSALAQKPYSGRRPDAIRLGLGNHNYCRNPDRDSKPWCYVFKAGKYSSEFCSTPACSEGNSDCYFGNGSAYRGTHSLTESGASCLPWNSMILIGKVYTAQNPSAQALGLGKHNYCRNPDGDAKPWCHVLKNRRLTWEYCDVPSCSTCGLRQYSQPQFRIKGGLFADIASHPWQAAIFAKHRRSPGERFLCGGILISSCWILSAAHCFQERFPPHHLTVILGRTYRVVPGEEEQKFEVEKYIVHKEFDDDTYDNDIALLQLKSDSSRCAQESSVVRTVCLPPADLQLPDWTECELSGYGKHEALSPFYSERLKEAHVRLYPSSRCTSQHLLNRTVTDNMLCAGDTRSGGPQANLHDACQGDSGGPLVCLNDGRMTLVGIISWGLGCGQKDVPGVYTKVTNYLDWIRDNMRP
Chain of plasma kallikrein (P03952 20-638 limits assumed): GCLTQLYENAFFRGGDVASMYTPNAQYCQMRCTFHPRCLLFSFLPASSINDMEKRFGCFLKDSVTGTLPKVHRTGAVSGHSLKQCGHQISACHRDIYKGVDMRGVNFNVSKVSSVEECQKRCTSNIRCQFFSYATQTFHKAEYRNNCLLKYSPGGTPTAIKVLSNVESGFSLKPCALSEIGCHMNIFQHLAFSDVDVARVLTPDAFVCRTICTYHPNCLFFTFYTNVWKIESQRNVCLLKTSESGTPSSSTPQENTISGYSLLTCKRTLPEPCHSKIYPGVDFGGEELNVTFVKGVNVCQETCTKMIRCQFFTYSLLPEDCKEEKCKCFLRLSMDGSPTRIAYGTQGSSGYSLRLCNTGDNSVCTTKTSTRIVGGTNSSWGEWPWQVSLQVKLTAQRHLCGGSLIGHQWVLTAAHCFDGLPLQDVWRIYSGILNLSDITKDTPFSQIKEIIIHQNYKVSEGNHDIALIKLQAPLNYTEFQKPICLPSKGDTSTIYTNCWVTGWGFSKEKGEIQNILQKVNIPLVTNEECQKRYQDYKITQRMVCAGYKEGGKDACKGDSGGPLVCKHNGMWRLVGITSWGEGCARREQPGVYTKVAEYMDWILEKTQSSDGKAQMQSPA
Chain of plasminogen (P00747 20-810 limits assumed): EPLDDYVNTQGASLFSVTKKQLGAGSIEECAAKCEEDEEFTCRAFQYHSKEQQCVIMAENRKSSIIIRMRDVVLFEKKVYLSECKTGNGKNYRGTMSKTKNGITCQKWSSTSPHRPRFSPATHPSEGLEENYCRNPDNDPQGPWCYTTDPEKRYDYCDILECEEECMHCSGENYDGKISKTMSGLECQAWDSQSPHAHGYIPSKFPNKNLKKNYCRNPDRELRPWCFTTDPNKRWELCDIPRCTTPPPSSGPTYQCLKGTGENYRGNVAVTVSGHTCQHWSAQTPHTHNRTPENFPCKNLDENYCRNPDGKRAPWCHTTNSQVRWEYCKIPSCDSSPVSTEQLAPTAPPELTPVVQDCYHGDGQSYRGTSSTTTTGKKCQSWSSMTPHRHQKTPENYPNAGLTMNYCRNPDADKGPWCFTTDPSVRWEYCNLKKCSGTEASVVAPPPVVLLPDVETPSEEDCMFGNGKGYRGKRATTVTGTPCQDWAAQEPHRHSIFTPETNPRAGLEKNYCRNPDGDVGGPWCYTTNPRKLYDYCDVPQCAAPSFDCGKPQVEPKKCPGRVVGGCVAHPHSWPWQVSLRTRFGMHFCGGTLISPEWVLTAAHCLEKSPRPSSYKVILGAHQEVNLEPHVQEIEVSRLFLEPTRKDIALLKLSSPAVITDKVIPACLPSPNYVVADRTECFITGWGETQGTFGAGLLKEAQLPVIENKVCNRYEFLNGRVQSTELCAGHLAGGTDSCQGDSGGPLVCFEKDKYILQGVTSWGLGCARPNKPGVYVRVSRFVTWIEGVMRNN

B1: Ir-CPI (Ixodes ricinus Contact Phase Inhibitor), recombinant (other)
chain: ANHKGRGRPAKCKLPPDDGPCRARIPSYYFDRKTKTCKEFMYGGCEGNENNFENITTCQEECRAKKV
notes: Kunitz-type protein; Made in E. coli as a GST fusion (pGEX-6P-1), released with PreScission protease and gel filtered; In the SPR assay it was amine-coupled to a CM5 chip; also called ID; NO; 7 without its peptide signal
As for B1, the binding result (with factor IX; with plasminogen; in the experiment with factor VIIa; in experiment [1]; in the experiment with factor X; with thrombin) was “no binding (tested: 100 nM)” throughout. The binding result in the experiment with t-PA is on record as “no binding (tested: 100 nM)”. Besides, in the experiment with factor XIIa, the “EC50 (µg/mL) of inhibition of FXII coagulation activity, aPTT-based assay in human plasma with FXII deficient plasma” value came out at 1.38 µg/mL. Besides, the “EC50 (µg/mL) of inhibition of FXI coagulation activity, aPTT-based assay in human plasma with FXI deficient plasma” value with factor XIa was 1.41 µg/mL. The molecule also came in with a Kd with plasma kallikrein of 200 nM.
